Assay [1] deals with T1, CD79b endogenously expressed on the cell surface (malignant B cell lines, normal B cells in PBMC, CLL … (human, UniProt P40259 29-229)).
T1 construct: whole, on cells; On cells CD79b stands in the B-cell receptor complex with CD79a and surface Ig; also called cell surface CD79b; endogenous CD79b
T1 sequence (looked up): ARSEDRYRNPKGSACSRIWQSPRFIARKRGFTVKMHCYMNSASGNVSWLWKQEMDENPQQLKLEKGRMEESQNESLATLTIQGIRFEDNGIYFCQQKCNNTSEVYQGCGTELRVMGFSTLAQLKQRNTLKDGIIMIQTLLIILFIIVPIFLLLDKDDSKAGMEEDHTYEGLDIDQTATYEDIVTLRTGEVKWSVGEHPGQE
Nature of the assay: flow cytometry on PBMC of Donor 356, B cells marked with CD19-BV421; anti-human IgG1-PE; MFI (PE); table under the graph (the graph's legend prints ch44D2). The procedure: (§1) The binding affinities of anti-CD79b antibodies to endogenous B cells were tested. […] The cells were then incubated with […] mixture of anti-human IgG1-PE (Invitrogen, Cat #: 12-4998-82), 1:1000 dilution; CD19-BV421 (Biolegend, Cat #:302230, 1:400 dilution) for 30 min on ice, and washed with 200 ul PBS for three times before flow cytometry analysis.
(In flow cytometry, cells or beads pass a laser one at a time.)

For assay [2], the target named is T2, human CD79b recombinant protein (human, UniProt P40259 29-159).
T2 construct: also called human CD79b ECD antigen; recombinant human CD79b ECD
T2 sequence: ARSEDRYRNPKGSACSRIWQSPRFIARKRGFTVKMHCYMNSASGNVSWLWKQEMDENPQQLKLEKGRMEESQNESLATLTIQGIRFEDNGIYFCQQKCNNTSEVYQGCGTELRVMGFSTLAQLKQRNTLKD
Nature of the assay: ELISA on recombinant human CD79b ECD; A 450nm. Background: In an ELISA, binding on a coated surface is turned into a signal by an enzyme label.

The target in assay [3] is T1, CD79b endogenously expressed on the …. Nature of the assay: flow cytometry on Daudi cells; anti-human IgG1-PE; MFI (PE); table under the graph. As for the experimental part:
(§2) The binding affinities of anti-CD79b antibodies to malignant B cell lines were tested. […] The cells were then incubated with 100 μl anti-human IgG1-PE (Invitrogen, cat: 12-4998-82), 1:1000 dilution, for 30 min on ice, washed with 200 ul PBS for three times before flow cytometry analysis.

The target is the same in assay [4]. Nature of the assay: flow cytometry on PBMC of Donor 2235, B cells marked with CD19-BV421; anti-human IgG1-PE; MFI (PE); table under the graph. As for the experimental part: as §1
Assay [5] shares this target. Nature of the assay: flow cytometry on PBMC of CLL Donor 0255 (B lymphocytes); PE goat anti-human IgG Fc; MFI PE. The procedure:
To determine the binding affinities of the anti-CD79b antibodies to cell surface CD79b on Chronic Lymphocytic Leukemia (CLL) patient's B lymphocytes, a cell-based binding assay was conducted. […] CLL patient PBMCs were purchased from the company Bioscience. […] Specifically, 2.5×10⁴ PBMC cells in 50 μl FACS buffer (1×PBS+2% BSA+2 mM EDTA) were seeded in each well of a V bottom 96-well plate. […] The mixture was incubated on ice for 30 minutes, and then washed twice with FACS buffer. The cells were re-suspended in 100 μl FACS buffer containing PE conjugated goat anti-human IgG Fc (1:1000) and anti-human CD19 (BV421), and incubated for 30 minutes on ice in darkness. After washing twice with FACS buffer, the cells were re-suspended in 100 μl of FACS buffer and analyzed with a Cytek cytometer.

Assay [6] has the same target. The assay is described as follows: flow cytometry on BJAB cells; anti-human IgG1-PE; MFI (PE); table under the graph. As for the experimental part:
as §2

The target is the same in assay [7]. Nature of the assay: flow cytometry on SU-DHL-4 cells; anti-human IgG1-PE; MFI (PE); table under the graph. As for the experimental part:
as §2

Assay [8] has the same target. The assay is described as follows: flow cytometry on a cell line expressing endogenous CD79b (not named on the sheet or in the text); MFI (PE).
Assay [9] has the same target. Nature of the assay: flow cytometry on Ramos cells; anti-human IgG1-PE; MFI (PE); table under the graph. The procedure:
as §2

The target is the same in assay [10]. The assay is described as follows: flow cytometry on PBMC of Donor 2890, B cells marked with CD19-BV421; anti-human IgG1-PE; MFI (PE); table under the graph. The procedure:
as §1

The target of assay [11] is T2, human CD79b recombinant protein. The assay is described as follows: ELISA, coated human CD79b recombinant protein. As for the experimental part:
(§3) Binding affinities of anti-CD79b antibodies to human and cynomolgus CD79b recombinant proteins were tested by ELISA. 1 ug/ml (in PBS buffer) of human or cynomolgus CD79b recombinant proteins were coated on an ELISA plate overnight. ELISA plates were washed and blocked with blocking buffer (PBS+1% BSA) followed by incubation with serially diluted anti-CD79b primary antibodies. Anti-CD79b antibody binding was quantified using an anti-human IgG HRP secondary antibody (Biolegend Catalog #410902) and HRP substrate.

Assay [12] deals with T1, CD79b endogenously expressed on the …. The assay is described as follows: flow cytometry on PBMC of Donor 889, B cells marked with CD19-BV421; anti-human IgG1-PE; MFI (PE); table under the graph. As for the experimental part:
as §1

The target is the same in assay [13]. The assay is described as follows: flow cytometry on Nalm-6 cells; anti-human IgG1-PE; MFI (PE); table under the graph. The procedure:
as §2

In assay [14] the target is T3, cynomolgus CD79b recombinant protein (cynomolgus).
T3 chain: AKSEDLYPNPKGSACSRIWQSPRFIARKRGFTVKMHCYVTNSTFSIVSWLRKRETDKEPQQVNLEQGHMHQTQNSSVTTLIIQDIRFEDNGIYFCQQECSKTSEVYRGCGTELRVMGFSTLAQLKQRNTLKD
The assay is described as follows: ELISA, coated cynomolgus CD79b recombinant protein. As for the experimental part: as §3

Assay [15] has as its target T1, CD79b endogenously expressed on the …. Nature of the assay: flow cytometry on Daudi cells; anti-human IgG1-PE; MFI (PE); table under the graph; curve reaches only about 0.2x10^5 at 40 nM. The procedure:
as §2

For assay [16] the target is unchanged. The assay is described as follows: flow cytometry on Ramos cells; anti-human IgG1-PE; MFI (PE); table under the graph; curve reaches only about 0.3x10^5 at 40 nM. The procedure: as §2
In assay [17] the target is T3, cynomolgus CD79b recombinant protein. Nature of the assay: ELISA; cynomolgus CD79b recombinant protein coated at 1 ug/ml; anti-human IgG HRP; OD 450 nm. The procedure:
as §3

Assay [18] has as its target T1, CD79b endogenously expressed on the …. The assay is described as follows: flow cytometry on BJAB cells; anti-human IgG1-PE; MFI (PE); table under the graph; plateau only about 1.1x10^5 against about 6x10^5 for the others. The procedure: as §2
The target of assay [19] is T2, human CD79b recombinant protein. Nature of the assay: BLI; antibody at 10 ug/ml captured on anti-human IgG Fc probes, hCD79b in solution; same value printed in the rows for 18.3 and 9.14 nM hCD79b. As for the experimental part:
(§4) Binding affinities of anti-CD79b antibodies to human CD79b recombinant proteins were tested by BLI. 10 ug/ml of anti-CD79b antibodies were captured by anti-human IgG Fc probes (Gator Bio Catalog #160024). […] Absolute kD was determined by applying a 1:1 binding model (Global Rmax unlinked).
On the technique in general: Biolayer interferometry detects binding as a change in optical thickness at a sensor tip.

Assay [20] has as its target T1, CD79b endogenously expressed on the …. Nature of the assay: flow cytometry on Nalm-6 cells; anti-human IgG1-PE; MFI (PE); table under the graph; fit of a flat curve, far above the highest concentration of 40 nM. As for the experimental part:
as §2

In assay [21] the target is T2, human CD79b recombinant protein. Nature of the assay: BLI, antibody captured on anti-human IgG Fc probes, human CD79b in solution, 1:1 model. As for the experimental part:
as §4

B1: ch44G2 (antibody, human IgG1, kappa, V domains shown)
VH: QSVRETGGGLVQPGGSLKLSCKASGFTINIDYWISWVRQAPGKGLEWIGIIDPGDGTTYFAIWVSGRFTISFDNTQNTVDLQMNSLTAADTATYFCVREFSASAYQYDLWGPGTLVTVSS
VL: DLVMTQTPSSVSAAVGGTVSINCRASEDIENYLAWYQQKPGQPPKLLIYRASTLSSGVSSRFSGSGSGTEFTLTISGVQPDDAATYYCQQGYRNSNVDNPFGGGTEMVVKR
notes: Rabbit/human chimeric IgG1 kappa; also called chimeric 44G2
B1: the EC50 is 357 pM in assay [1]; 790 pM in assay [3]; 727 pM in assay [4]; 670 pM in assay [6]; 720 pM in assay [7]; 860 pM in assay [9]. The EC50 amounted to 675 pM in assay [10], 95.5 pM in assay [12] and 1590 pM in assay [13]. Further, the results for the “EC50 (read off the curve)” value in assay [2], in assay [5] and in assay [8] were about 500 pM, about 800 pM and about 200 pM, respectively. In addition, the IC50 in assay [11] is 630 pM; in assay [14], 3000 pM.

B2: ch29C3 (antibody, human IgG1, kappa, V domains shown)
VH: QSVKESGGGLFKPTDTLTLTCTVSGIDLNNYAMNWVRQAPGKGLDWIGLIGASGSTYYADWAKGRFTISKTSTTVDLKMTSLTTEDTATYFCAIGISATAHTSNIWGPGTLVAVSL
VL: ALVMTQTPSSVSAAVGGTVTINCQASQNIDSNLAWYQQKPGQPPKLLIYDASALASGVPSRFKGSGSGTEYTLTISGVEPDDAATYYCQQDDSSSNVDNPFGGGTEVVVKR
notes: Rabbit/human chimeric IgG1 kappa; also called chimeric 29C3
Turning to B2, the EC50 is 14200 pM in assay [15], 11300 pM in assay [16], 990 pM in assay [18] and 508000 pM in [20]. The binding result in [17] is listed as “no binding (tested: about 13 nM)”. Also, the IC50 in [11] came to 170 pM. Moreover, the off-rate constant (koff) in assay [19] worked out at 0.000168 s⁻¹. In assay [19], the kon was determined as 353000 M⁻¹ s⁻¹. The Kd in [21] worked out at 476 pM.

As a reminder, the EC50 is the concentration needed to bring the measured effect to its halfway point. For orientation: EC50 (read off the curve) means the concentration needed to bring the measured effect to its halfway point. Broadly, the IC50 is the concentration that inhibits the measured activity by half. What is called koff is the rate constant with which the complex falls apart. In general, kon refers to a measure of how fast the partners come together. In general, Kd refers to the constant that tells how readily two partners part at equilibrium.
